B1: Abl interactor 2 (Homo sapiens), Q9NYB9 (parent)
chain: MAELQMLLEEEIPGGRRALFDSYTNLERVADYCENNYIQSADKQRALEETKAYTTQSLASVAYLINTLANNVLQMLDIQASQLRRMESSINHISQTVDIHKEKVARREIGILTTNKNTSRTHKIIAPANLERPVRYIRKPIDYTILDDIGHGVKWLLRFKVSTQNMKMGGLPRTTPPTQKPPSPPMSGKGTLGRHSPYRTLEPVRPPVVPNDYVPSPTRNMAPSQQSPVRTASVNQRNRTYSSSGSSGGSHPSSRSSSRENSGSGSVGVPIAVPTPSPPSVFPAPAGSAGTPPLPATSASAPAPLVPATVPSSTAPNAAAGGAPNLADGFTSPTPPVVSSTPPTGHPVQFYSMNRPASRHTPPTIGGSLPYRRPPSITSQTSLQNQMNGGPFYSQNPVSDTPPPPPPVEEPVFDESPPPPPPPEDYEEEEAAVVEYSDPYAEEDPPWAPRSYLEKVVAIYDYTKDKEDELSFQEGAIIYVIKKNDDGWYEGVMNGVTGLFPGNYVESIMHYSE
partner: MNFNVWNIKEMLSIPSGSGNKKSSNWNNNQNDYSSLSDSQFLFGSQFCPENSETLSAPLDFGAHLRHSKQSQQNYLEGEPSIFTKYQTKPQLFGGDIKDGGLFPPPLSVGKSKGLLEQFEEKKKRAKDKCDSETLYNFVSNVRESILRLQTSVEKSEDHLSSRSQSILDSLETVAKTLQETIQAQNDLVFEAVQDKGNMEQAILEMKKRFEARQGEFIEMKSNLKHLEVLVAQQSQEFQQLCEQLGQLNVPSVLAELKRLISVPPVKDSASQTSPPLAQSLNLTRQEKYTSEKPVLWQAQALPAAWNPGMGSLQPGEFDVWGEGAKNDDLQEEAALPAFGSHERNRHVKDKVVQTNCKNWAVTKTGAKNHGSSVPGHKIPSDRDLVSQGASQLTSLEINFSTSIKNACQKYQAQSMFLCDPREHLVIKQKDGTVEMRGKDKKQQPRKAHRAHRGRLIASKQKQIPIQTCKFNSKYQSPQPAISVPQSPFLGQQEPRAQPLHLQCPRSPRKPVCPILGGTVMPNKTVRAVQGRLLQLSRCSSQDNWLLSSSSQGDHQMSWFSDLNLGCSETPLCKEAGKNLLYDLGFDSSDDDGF
B2: Abl interactor 2 (Homo sapiens), Q9NYB9 (parent)
chain: B1 chain
partner: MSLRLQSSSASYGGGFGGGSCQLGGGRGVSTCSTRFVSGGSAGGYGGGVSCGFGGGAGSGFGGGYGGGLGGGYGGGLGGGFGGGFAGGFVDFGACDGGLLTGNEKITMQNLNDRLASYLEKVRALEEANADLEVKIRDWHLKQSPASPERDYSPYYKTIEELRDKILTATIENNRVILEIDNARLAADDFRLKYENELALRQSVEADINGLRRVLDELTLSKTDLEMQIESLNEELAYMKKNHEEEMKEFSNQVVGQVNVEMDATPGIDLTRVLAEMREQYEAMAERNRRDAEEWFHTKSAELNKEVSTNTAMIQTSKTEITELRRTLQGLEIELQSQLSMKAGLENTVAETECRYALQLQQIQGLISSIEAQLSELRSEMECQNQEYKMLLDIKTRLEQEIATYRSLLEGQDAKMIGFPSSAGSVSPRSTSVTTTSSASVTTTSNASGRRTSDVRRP
B3: E3 ubiquitin-protein ligase TRIM17 (Homo sapiens), Q9Y577 (parent)
chain: MEAVELARKLQEEATCSICLDYFTDPVMTTCGHNFCRACIQLSWEKARGKKGRRKRKGSFPCPECREMSPQRNLLPNRLLTKVAEMAQQHPGLQKQDLCQEHHEPLKLFCQKDQSPICVVCRESREHRLHRVLPAEEAVQGYKLKLEEDMEYLREQITRTGNLQAREEQSLAEWQGKVKERRERIVLEFEKMNLYLVEEEQRLLQALETEEEETASRLRESVACLDRQGHSLELLLLQLEERSTQGPLQMLQDMKEPLSRKNNVSVQCPEVAPPTRPRTVCRVPGQIEVLRGFLEDVVPDATSAYPYLLLYESRQRRYLGSSPEGSGFCSKDRFVAYPCAVGQTAFSSGRHYWEVGMNITGDALWALGVCRDNVSRKDRVPKCPENGFWVVQLSKGTKYLSTFSALTPVMLMEPPSHMGIFLDFEAGEVSFYSVSDGSHLHTYSQATFPGPLQPFFCLGAPKSGQMVISTVTMWVKG
partner: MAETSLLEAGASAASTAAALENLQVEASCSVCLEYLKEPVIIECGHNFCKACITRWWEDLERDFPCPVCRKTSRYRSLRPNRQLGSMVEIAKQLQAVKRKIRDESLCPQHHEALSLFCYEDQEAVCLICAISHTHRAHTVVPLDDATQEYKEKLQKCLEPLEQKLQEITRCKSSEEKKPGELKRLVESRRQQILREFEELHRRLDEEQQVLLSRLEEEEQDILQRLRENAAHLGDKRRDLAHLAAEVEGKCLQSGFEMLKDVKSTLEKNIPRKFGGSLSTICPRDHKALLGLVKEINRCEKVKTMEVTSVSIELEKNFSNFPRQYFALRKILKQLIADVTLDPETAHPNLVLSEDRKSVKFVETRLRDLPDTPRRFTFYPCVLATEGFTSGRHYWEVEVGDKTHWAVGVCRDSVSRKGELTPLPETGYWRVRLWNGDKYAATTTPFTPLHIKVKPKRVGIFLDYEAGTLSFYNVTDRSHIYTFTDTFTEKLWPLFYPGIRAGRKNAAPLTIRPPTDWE
B4: Abl interactor 2 (Homo sapiens), Q9NYB9 (parent)
chain: B1 chain
partner: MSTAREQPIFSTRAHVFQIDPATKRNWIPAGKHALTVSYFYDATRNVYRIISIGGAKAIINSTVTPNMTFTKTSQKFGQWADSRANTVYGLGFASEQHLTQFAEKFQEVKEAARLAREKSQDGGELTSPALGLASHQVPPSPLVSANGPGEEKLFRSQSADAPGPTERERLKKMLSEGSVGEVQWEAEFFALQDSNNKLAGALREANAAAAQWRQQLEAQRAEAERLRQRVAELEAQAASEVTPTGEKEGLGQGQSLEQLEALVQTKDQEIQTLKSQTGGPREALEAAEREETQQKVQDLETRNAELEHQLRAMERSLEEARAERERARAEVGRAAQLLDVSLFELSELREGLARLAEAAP
B5: Abl interactor 2 (Homo sapiens), Q9NYB9 (parent)
chain: B1 chain
partner: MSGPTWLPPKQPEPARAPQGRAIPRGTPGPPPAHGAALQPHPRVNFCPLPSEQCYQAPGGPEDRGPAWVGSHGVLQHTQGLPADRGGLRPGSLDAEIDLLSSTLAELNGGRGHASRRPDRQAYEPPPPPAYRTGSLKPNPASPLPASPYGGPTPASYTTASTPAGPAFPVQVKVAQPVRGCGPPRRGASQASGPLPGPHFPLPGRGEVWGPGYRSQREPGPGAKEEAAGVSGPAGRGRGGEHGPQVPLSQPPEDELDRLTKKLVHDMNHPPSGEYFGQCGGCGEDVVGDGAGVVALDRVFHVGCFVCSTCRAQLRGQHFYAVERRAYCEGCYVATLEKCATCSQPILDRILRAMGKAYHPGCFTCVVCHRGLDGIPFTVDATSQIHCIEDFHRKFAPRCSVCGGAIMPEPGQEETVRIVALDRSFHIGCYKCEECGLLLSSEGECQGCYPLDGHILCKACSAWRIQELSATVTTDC
B6: Abl interactor 2 (Homo sapiens), Q9NYB9 (parent)
chain: B1 chain
partner: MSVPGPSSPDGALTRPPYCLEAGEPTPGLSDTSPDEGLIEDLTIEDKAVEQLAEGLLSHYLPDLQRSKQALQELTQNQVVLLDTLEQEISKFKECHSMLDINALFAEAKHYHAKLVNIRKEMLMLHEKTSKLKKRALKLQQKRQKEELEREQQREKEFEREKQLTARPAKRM

Variants of: B1
Settings: with iho1_human IHO1, Q8IYA8

Row | effect of a mutation on the interaction | Variant
1 | with no effect | R373C

Variants of: B1
Settings: with iho1_human IHO1, Q8IYA8
Remark: another data set of the same source

Row | effect of a mutation on the interaction | Variant
2 | with no effect | E202K

Variants of: B2
Settings: with KRT13, P13646

Row | effect of a mutation on the interaction | Variant
3 | with no effect | R373C

Variants of: B2
Settings: with KRT13, P13646
Remark: another data set of the same source

Row | effect of a mutation on the interaction | Variant
4 | with no effect | E202K

Variants of: B3
Settings: with tri39_human TRIM39, Q9HCM9

Row | effect of a mutation on the interaction | Variant
5 | with no effect | MEAVELARKLQEEATCSICLDYFTDPVMTTCGHNFCRACIQLSWEKARGKKGRRKRKGSFPCPECREMSPQRNLLPNRLLTKVAEMAQQHPGLQKQDLCQEHHEPLKLFCQKDQSPICVVCRESREHRLHRVLPAEEAVQGYKLKLEEDMEYLREQITTTGNLQAREEQSLAEWQGKVKERRERIVLEFEKMNLYLVEEEQRLLQALETEEEETASRLRESVACLDRQGHSLELLLLQLEERSTQGPLQMLQDMKEPLSRKNNVSVQCPEVAPPTRPRTVCRVPGQIEVLRGFLEDVVPDATSAYPYLLLYESRQRRYLGSSPEGSGFCSKDRFVAYPCAVGQTAFSSGRHYWEVGMNITGDALWALGVCRDNVSRKDRVPKCPENGFWVVQLSKGTKYLSTFSALTPVMLMEPPSHMGIFLDFEAGEVSFYSVSDGSHLHTYSQATFPGPLQPFFCLGAPKSGQMVISTVTMWVKG [R159T]

Variants of: B4
Settings: with home3_human HOMER3, Q9NSC5

Row | effect of a mutation on the interaction | Variant
6 | with no effect | E202K

Variants of: B4
Settings: with home3_human HOMER3, Q9NSC5
Remark: another data set of the same source

Row | effect of a mutation on the interaction | Variant
7 | with no effect | R373C

Variants of: B5
Settings: with trip6_human TRIP6, Q15654

Row | effect of a mutation on the interaction | Variant
8 | with no effect | R373C

Variants of: B5
Settings: with trip6_human TRIP6, Q15654
Remark: another data set of the same source

Row | effect of a mutation on the interaction | Variant
9 | with no effect | E202K

Variants of: B6
Settings: with bl1s6_human BLOC1S6, Q9UL45

Row | effect of a mutation on the interaction | Variant
10 | with no effect | E202K

Variants of: B6
Settings: with bl1s6_human BLOC1S6, Q9UL45
Remark: another data set of the same source

Row | effect of a mutation on the interaction | Variant
11 | with no effect | R373C
